Laboratory results: patent US11994512B2, “Single-cell genomic methods to generate ex vivo cell systems that recapitulate in vivo biology with improved fidelity” (Massachusetts Institute of Technology, priority 2018, dated 2024)

System: intracellular proteome of ENR+CD and ENR organoids
Assay: LC-MS/MS TMT proteomics of ENR+CD versus ENR organoids
Type: cell-based, C57BL/6 mice
Conditions: for Average logFC: ENR+CD versus ENR organoids, sample pairs in aggregate (n=4, 2 technical replicates from two biological donors); for M1-1 Log2 Median Normalized / M1-2 Log2 Median Normalized / M2-1 Log2 Median Normalized / M2-2 Log2 Median Normalized: protein abundance ratio ENR+CD versus ENR organoids, LC-MS/MS TMT proteomics; for M1-1 Log2 Median Normalized: sample pair M1-1; for M1-2 Log2 Median Normalized: sample pair M1-2; for M2-1 Log2 Median Normalized: sample pair M2-1; for M2-2 Log2 Median Normalized: sample pair M2-2; for change: up = enriched in ENR+CD, down = enriched in ENR, FDR<0.05 and log fold change cut-off

B1: Q80XU3 (protein, UniProt Q80XU3 1-234, looked up)
chain: MSRPVRNRKVVDYSQFQESDDADEDYGRDSGPPAKKIRSSPREAKNKRRSGKNSQEDSEDSEEKDVKTKKDDSHSAEDSEDEKDDHKNVRQQRQAASKAASKQREMLLEDVGSEEEPEEDDEAPFQEKDSGSDEDFLMEDDDDSDYGSSKKKNKKMVKKSKPERKEKKMPKPRLKATVTPSPVKGKAKVGRPTASKKSKEKTPSPKEEDEEAESPPEKKSGDEGSEDEASSGED
modifications: full-length
  Average logFC: −1.313
  M1-1 Log2 Median Normalized: −1.892
  M1-2 Log2 Median Normalized: −0.72
  M2-1 Log2 Median Normalized: −1.5225
  M2-2 Log2 Median Normalized: −1.116
  change: down

B2: Q8BM96 (protein, UniProt Q8BM96 1-785, looked up)
chain: MRSCRSCNVRVLVAIVCGLLTGIVLGLGIWRMVIRINRGIFVPVPSIPVQFCRNGGTWQNGRCICTEEWKGLRCTIANFCENSTDGEFTFGSIPVGRYGPSLQTCEPGTLNAGSPKATRLCNVSEFGNIELQNVTKGSCNINLQTLEIQINNQTASAENISREAQVLTADASKLTAQNITSATTVVGQIFGKANNESQAKKTAIATVSQILDASEDVFQKAAEMDNSKSFSNLIKQMENYSYSQGDQTVVEPNIAIQSVTRDDNSGPSVLFSVQKGSSNSLVSGRILINKTANGLNPDGQTELQILLNTGENRKSCGFMVYQNHKLFQSKTFTATSDFSQKIISSKINESEQQRQNKVSVEMVFNPTYDKRELRLHSYACVYWNFLINDWDTQGCQKTGNTTEFLRCNCSHTTNFAVLMSFKKDYKYPKSLDILSNIGCALSIAGLALTILFQILTRKIRKTSVTWVLVSLCSSMLIFNLLFVFGIENSNKNLKTSDSDINVKPENNKIPESDTIETPNPSCTAIAALLHYFLLVTFTWNGLSATQLYFLLIRTMKPLPRHFIIFISLVGWGVPAIIVGVTIGSIYALSGNKRYWELDYRQEEICWLAVPKDNDYARSPLLWSFIIPVTIILITNITIFVIITVKVLWKNNQNLTSTKKVSSLKKVFSTLSIAVVFGVTWILAYAMLISNDDIRIVFSYIFCLFNTTQGLQIFILYTVRTKVFQSEASKILKSLSSSFDRTKPMPSITPLKLRVRMYNMLRSLPSLNERFRLLEPSGMTEETSLS
modifications: full-length
  Average logFC: −1.142
  M1-1 Log2 Median Normalized: −0.895
  M1-2 Log2 Median Normalized: −1.193
  M2-1 Log2 Median Normalized: −1.2285
  M2-2 Log2 Median Normalized: −1.142
  change: down

B3: Q7TQD2 (protein, UniProt Q7TQD2 1-218, looked up)
chain: MADSKAKPAKAANKTPPKSPGDPARAAKRLSLESEGANEGATAAPELSALEEAFRRFAVHGDTRATGKEMHGKNWSKLCKDCHVIDGKNVTVTDVDIVFSKIKGKSCRTITFEQFQEALEELAKKRFKDKSSEEAVREVHRLIEGRAPVISGVTKAVSSPTVSRLTDTSKFTGSHKERFDQSGKGKGKAGRVDLVDESGYVPGYKHAGTYDQKVQGGK
modifications: full-length
  Average logFC: 1.241
  M1-1 Log2 Median Normalized: 1.195
  M1-2 Log2 Median Normalized: 1.666
  M2-1 Log2 Median Normalized: 0.7645
  M2-2 Log2 Median Normalized: 1.337
  change: up

B4: Q8BK48 (protein, UniProt Q8BK48 1-559, looked up)
chain: MPLYKLLGWLNAVACGVLLLVLHVQGQDSASPIRNTHTGQVRGSLVHVKDTDIAVHTFLGIPFAKPPVGPLRFAPPEAPEPWSGVRDGTSHPNMCLQNDNLMGSEDLKMMNLILPPISMSEDCLYLNIYVPAHAHEGSNLPVMVWIHGGALTVGMASMYDGSMLAATEDVVVVAIQYRLGVLGFFSTGDQHAKGNWGYLDQVAALRWVQQNIVHFGGNPDRVTIFGESAGGTSVSSHVVSPMSQGLFHGAIMESGVAVLPDLISSSSEMVHRIVANLSGCAAVNSETLMCCLRGKNEAEMLAINKVFKIIPGVVDGEFLPKHPQELMASKDFHPVPSIIGINNDEYGWILPTIMDPAQKIEEITRKTLPAVLKSTALKMMLPPECGDLLMEEYMGDTEDPETLQAQFREMKGDFMFVIPALQVAHFQRSHAPVYFYEFQHRPSFFKDFRPPYVKADHGDEIFLVFGYQFGNIKLPYTEEEEQLSRRIMKYWANFARHGNPNSEGLPYWPVMDHDEQYLQLDIQPSVGRALKARRLQFWTKTLPQKIQELKGSQERHKEL
modifications: full-length
  Average logFC: −1.69
  M1-1 Log2 Median Normalized: −1.646
  M1-2 Log2 Median Normalized: −1.907
  M2-1 Log2 Median Normalized: −2.1625
  M2-2 Log2 Median Normalized: −1.046
  change: down

B5: Q80V42 (protein, UniProt Q80V42 1-443, looked up)
chain: MDRARLWLGLLLPVVAALDFRYHHQEGMEAFLKSVAQNYSSITHLHSIGKSVRGRNLWVLVVGQTPKEHRVGIPEFKYVANMHGDETVGRELLLHLIDYLVSSYRKDPEITHLIDSTRIHIMPSMNPDGFEAVQKPDCYYSNGRENYNNYDLNRNFPDAFENNNVTKQPETLAIMEWLKTETFVLSANLHGGALVASYPFDNGVQATGTLLSRSLTPDDDVFQHLAYTYASRNPNMTKGDQCKNKRNFPNGIINGYSWYPLQGGMQDYNYIWAQCFEITLELSCCKYPREEKLPLFWNDNKASLIEYIKQVHLGVKGQVFDQSGAPLPNVIVEVQDRKHICPFRTNKLGEYYLLLLPGSYVINVTVPGHDSYLTKLTIPGKSQPFSALKKDFHLPLRWQPDSISVSNPSCPMIPLYKFMPSHSAATKPSLGVFFMTLLYVFFK
modifications: full-length
  Average logFC: 1.366
  M1-1 Log2 Median Normalized: 1.517
  M1-2 Log2 Median Normalized: 1.383
  M2-1 Log2 Median Normalized: 1.3355
  M2-2 Log2 Median Normalized: 1.228
  change: up

B6: Q8BPQ7 (protein, UniProt Q8BPQ7 1-1093, looked up)
chain: MASVPAEAETRQRLLRTVKKEVKQIMEEAVTRKFVHEDSSHIISFCAAVEACVLHGLRRRAAGFLRSNKIAALFMKVGKGFPPAEELSRKVQELEQLIESARNQIQGLQENVRKLPKLPNLSPLAIKHLWIRTALFGRVLDKIVHYLVENSSKYYEKEALLMDPVDGPILASLLVGPCALEYTKMKTADHFWTDPSADELVQRHRIHSSHLRQDSPTKRPALCIQKRHSSGSMDDRPSISARDYVESLHQDSRATLLYGKNNVLVQPRDDMEAVPGYLSLHQTADVMTLKWTPNQLMNGSVGDLDYEKSVYWDYAVTIRLEEIVYLHCHQQVDSGGTVVLVSQDGIQRPPFRFPKGGHLLQFLSCLENGLLPHGQLDPPLWSQRGKGKVFPKLRKRSPQGSSESTSSDKEDDEATDYVFRIIYPGTQSEFVPQDLMDVSMNNLPPLWQPSPRKSSCSSCSQSGSADGGSTNGCNHERAPLKLLCDNMKYQILSRAFYGWLAYCRHLSTVRTHLSALVNHMIVSPDLPCDAGQGLTASIWEKYIQDSTTYPEQELLRLIYYGGVQPEIRRAVWPFLLGHYQFGMTEMERKEVDEQIHACYAQTMSEWLGCEAIVRQRERESHAAALAKCSSGASLDSHLHRMLHRDSTISNESSQSCSSGRQNLRLQSDSSSSTQVFESVDEVEQTEAEGRSEEKHPKIPNGNPANGTCSPDSGHPSSHNFSSGLSEHSEPSLSTEDSVLDAQRSLPAVFRPGDSSVEDGQSSEATTSRDEAPREELAVQDSLESDLLANESLEEFMSIPGSLDVALPEKDGAVMDGWPGEADKPSRADSEDNLSEEPEMESLFPALASLAVTSSANNEASPVSSSGVTYSPELLDLYTVNLHRIEKDVQRCDRSYWYFTAANLEKLRNIMCSYIWQHIEIGYVQGMCDLLAPLLVILDDEALAFSCFTELMKRMNQNFPHGGAMDTHFANMRSLIQILDSELFELMHQNGDYTHFYFCYRWFLLDFKRELVYDDVFSVWETIWAAKHVSSAHYVLFIALALVEVYRDIILENNMDFTDIIKFFNEMAERHNAKQILQLARDLVHKVQILIENK
modifications: full-length
  Average logFC: 1.34
  M1-1 Log2 Median Normalized: 1.5
  M1-2 Log2 Median Normalized: 0.707
  M2-1 Log2 Median Normalized: 1.4015
  M2-2 Log2 Median Normalized: 1.339
  change: up

B7: Q80Z37 (protein, UniProt Q80Z37 1-1033, looked up)
chain: MGSQPPPPGSPLSREEGEAPPLVPAEEGRRRSRRVRLRGSCRHRPSLLSRRELASNGPAVPATASSEIMASAAKEFKMDNFSPKAGTSKLQQTVPADASPDSKCPICLDRFDNVSYLDRCLHKFCFRCVQEWSKNKAECPLCKQPFDSIFHSVRAEDDFKEYVLRPSYNGSFTNPEVRRFRYRTTMTRERSASLYSPSSTVSRRTTTPPDSGVLFEGLGISTRPRDVDIPQFMRQMALRGPTTTDERSLRKIQEQDIINFRRTLYRAGVRVRSIEDGGRYRDISAEFFRRNPACLHRLVPWLKRELTVLFGAHGSLVNIVQHIIMSNVTRYDLESQAFVSDLRPFLLNRTEHFIHEFISFARSPFNMAAFDQHANYDCPPSSEEGSRSDSSVITISPDEAETQELDMNASTVRQAPWDDETPGPSYSSSEQVHVGVSSLLNSSDSSDEELVSGGTTSQIQGVQTNDDVNNDSDSSSDNCVIVGFVKPLAERTPELVELSSDSEELGPYEKVETVKTQEQEQSYSSGDSDVSRASSPRSVLGKDEQMSKSHCDSDTRISSKKEEKRSTSLPAPRDSSSTRGDRVCSPYNHRHRKGGRSRSSDSRSQSRSGHDPRNHRKHGKKRLRNKRSRSRESSSRPRARKDKKRSRTRDSSWSRRSQTLSLSSGSTSRSRSRSSDHGKRRSRSRNRDRYYLRNNYGSKYKWEYTYYSRNKDRDGYESSYRRRTLSRAHYSRQSSSPEFRIQSFSERTNARKKNHSERKYYYYERRRSRSVSSNRSRTTSAGPDRVRNEKPGGKRKYKTRHLEGTSEEAQPAREFTSKGKDSHYQKSKLDGSYKNESDSFSDSRSSDRETKHKRRRRRTRSLSVEIVYEGKATDTSKHHKKKKKKHKKKHKKHHGDNTSRSPVVITIDSDSDGESEVKAGIECSNGSLPQPIQDGAFETKDVVTIEDELGVLDKDCDVTALADDLSTSQTVENCDSPAVPVEQTLDVREESTFASDLESQSSNVSIQAEPSRPVPSPRTSLSSVSPGRDCDVS
modifications: full-length
  Average logFC: 1.193
  M1-1 Log2 Median Normalized: 1.31
  M1-2 Log2 Median Normalized: 0.914
  M2-1 Log2 Median Normalized: 1.7665
  M2-2 Log2 Median Normalized: 0.782
  change: up

B8: Q7TNV0 (protein, UniProt Q7TNV0 1-380, looked up)
chain: MSAAAAPAAEGEDAPVPPSSEKEPEMPGPREESEEEEEDDEDDDEEDEEEEKEKSLIVEGKREKKKVERLTMQVSSLQREPFTVTQGKGQKLCEIERIHFFLSKKKPDELRNLHKLLYNRPGTVSSLKKNVGQFSGFPFEKGSTQYKKKEEMLKKFRNAMLKSICEVLDLERSGVNSELVKRILNFLMHPKPSGKPLPKSKKSSSKGSKKERNSSGTTRKSKQTKCPEILSDESSSDEDEKKNKEESSEDEEKESEEEQPPKKTSKKEKAKQKATAKSKKSVKSANVKKADSSTTKKNQKSSKKESESEDSSDDEPLIKKLKKPPTDEELKETVKKLLADANLEEVTMKQICKEVYENYPAYDLTERKDFIKTTVKELIS
modifications: full-length
  Average logFC: −1.42
  M1-1 Log2 Median Normalized: −1.8
  M1-2 Log2 Median Normalized: −0.726
  M2-1 Log2 Median Normalized: −1.2915
  M2-2 Log2 Median Normalized: −1.861
  change: down
